How the values were obtained:
[1] = molecular target: T1, Poly-(ADP-ribose) polymerase 1 (PARP1), wild type, labelled with Alexa488, bound to p18mer DNA (UniProt P09874 1-1014, Alexa488 C4 maleimide label (extent of labeling typically 50-100%)); assay: FRET or BRET; Alexa647-HPF1 (0.6-10,000 nM) titrated into Alexa488-PARP1 (0.2 uM) premixed with p18mer DNA (0.2 uM) and DMSO (control, no olaparib); binding buffer 50 mM Tris-HCl pH 8.0, 50 mM NaCl, 1 mM MgCl2, 0.1 mM EDTA, 0.01% IGEPAL; settings: both partners purified
T1 construct: Poly-(ADP-ribose) polymerase 1 (PARP1), wild type; In the assay premixed with p18mer double-stranded DNA (0.2 uM); the DNA is no protein chain; also called PARP1 - p18mer complex; 488-labeled PARP1

[2] = molecular target: T1, Poly-(ADP-ribose) polymerase 1 (PARP1), …; assay: FRET or BRET; as a3 but with olaparib (1 uM): Alexa647-HPF1 titrated into Alexa488-PARP1 (0.2 uM) premixed with p18mer DNA (0.2 uM) and olaparib; binding buffer; settings: both partners purified

T1 sequence (P09874 whole entry): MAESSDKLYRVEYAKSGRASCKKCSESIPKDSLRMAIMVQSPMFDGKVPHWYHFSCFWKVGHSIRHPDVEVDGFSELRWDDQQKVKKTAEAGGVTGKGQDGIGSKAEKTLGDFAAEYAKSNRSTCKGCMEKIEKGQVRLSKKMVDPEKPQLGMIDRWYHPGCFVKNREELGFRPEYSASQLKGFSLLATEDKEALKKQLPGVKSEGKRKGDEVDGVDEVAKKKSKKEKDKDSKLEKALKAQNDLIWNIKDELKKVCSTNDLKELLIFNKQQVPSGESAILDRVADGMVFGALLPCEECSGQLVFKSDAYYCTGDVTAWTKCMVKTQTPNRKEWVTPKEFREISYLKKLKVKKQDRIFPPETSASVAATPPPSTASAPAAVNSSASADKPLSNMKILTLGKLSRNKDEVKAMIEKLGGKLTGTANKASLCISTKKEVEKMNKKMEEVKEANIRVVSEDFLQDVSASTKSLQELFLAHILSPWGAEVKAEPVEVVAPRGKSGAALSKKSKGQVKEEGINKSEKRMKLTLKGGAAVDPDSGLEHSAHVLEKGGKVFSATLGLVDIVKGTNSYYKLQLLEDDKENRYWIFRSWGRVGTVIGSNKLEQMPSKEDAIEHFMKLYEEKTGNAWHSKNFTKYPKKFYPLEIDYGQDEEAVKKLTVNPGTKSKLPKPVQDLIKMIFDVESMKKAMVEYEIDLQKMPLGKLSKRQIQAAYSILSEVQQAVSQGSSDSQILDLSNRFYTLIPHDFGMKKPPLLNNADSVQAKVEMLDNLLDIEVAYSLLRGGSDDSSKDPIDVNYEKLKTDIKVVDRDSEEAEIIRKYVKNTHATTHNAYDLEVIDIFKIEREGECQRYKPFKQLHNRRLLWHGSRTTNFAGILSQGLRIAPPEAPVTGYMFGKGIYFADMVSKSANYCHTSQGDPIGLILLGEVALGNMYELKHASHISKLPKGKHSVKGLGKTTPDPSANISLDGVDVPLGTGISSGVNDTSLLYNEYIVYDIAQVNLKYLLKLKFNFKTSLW

Kd [1]: 3.8 µM | Kd [2]: 1.2 µM
B1: Histone PARylation factor 1 (HPF1), labelled with Alexa647 (natural protein)
chain: LRKEVENHYKLSLPEDFYHFWKFCEELDPEKPSDSLSASLGLQLVGPYDILAGKHKTKKKSTGLNFNLHWRFYYDPPEFQTIIIGDNKTQYHMGYFRDSPDEFPVYVGINEAKKNCIIVPNGDNVFAAVKLFLTKKLREITDKKKINLLKNIDEKLTEAARELGYSLEQRTVKMKQRDKKVVTKTFHGAGLVVPVDKNDVGYRELPETDADLKRICKTIVEAASDEERLKAFAPIQEMMTFVQFANDECDYGMGLELGMDLFCYGSHYFHKVAGQLLPLAYNLLKRNLFAEIIEEHLANRSQENIDQLAA
modifications: Alexa647 C2 maleimide label (extent of labeling typically 50-100%)
notes: Histone PARylation factor 1 (HPF1); also called wild-type protein

From article PMC7854685, “Histone Parylation factor 1 contributes to the inhibition of PARP1 by cancer drugs” (Nature Communications, 2021)
